Substitutions are numbered along the chain they refer to. Where two headings read alike, the source gives them in different places. Blank lines part the entries; values can stand above or below the binder they belong to.
Legend:
[1] = molecular target: T1, recombinant cynomolgus monkey IL-13 (cynomolgus monkey, UniProt Q0PW92 21-132); assay: SPR
T1 construct: bought; also called rc-IL-13; cIL-13

hTSLP-His [2] = molecular target: T2, hTSLP-His (human, UniProt Q969D9 29-159, limits assumed); assay: cell-based or functional assay
hTSLP-His [3] = molecular target: T2, hTSLP-His; assay: competition ELISA, 7 nM TSLP-His pre-incubated with antibody; competitor Tezepelumab coated
recombinant human IL-13 [4] = molecular target: T3, recombinant human IL-13 (human, UniProt P35225 35-146); assay: SPR
T3 construct: also called rh-IL-13; hIL-13

human TSLP [5] = molecular target: T4, human TSLP (human, UniProt Q969D9 29-159); assay: SPR
T4 construct: also called hTSLP; rhTSLP

[6] = molecular target: T5, cynomolgus monkey (cyno) TSLP (cynomolgus monkey, UniProt A0A7N9CAT7 29-159); assay: SPR
T5 construct: also called cTSLP; cynomolgus TSLP

recombinant human IL-13 [7] = molecular target: T3, recombinant human IL-13; assay: cell-based or functional assay
recombinant human IL-13 [8] = molecular target: T3, recombinant human IL-13; assay: cell-based or functional assay; remark: listed apart in the source
recombinant human IL-13 [9] = molecular target: T3, recombinant human IL-13; assay: SPR; remark: listed apart in the source
human TSLP [10] = molecular target: T4, human TSLP; assay: SPR; remark: listed apart in the source

T1 sequence (Q0PW92 entry or part of it): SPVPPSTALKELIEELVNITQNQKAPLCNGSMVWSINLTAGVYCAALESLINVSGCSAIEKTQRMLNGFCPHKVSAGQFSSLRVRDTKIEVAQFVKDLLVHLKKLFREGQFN
T5 sequence (A0A7N9CAT7 entry or part of it): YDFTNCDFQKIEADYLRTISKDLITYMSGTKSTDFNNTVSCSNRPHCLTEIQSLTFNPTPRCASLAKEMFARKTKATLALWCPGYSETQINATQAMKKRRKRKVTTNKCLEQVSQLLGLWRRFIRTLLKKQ
T3 sequence (P35225 35-146 limits assumed): as the sequence (Q0PW92 entry or part of it) above, with S1G, K10R, V42M, N67S, R83H, V100L counted along it

B4: BDG38.106 (antibody, V domains shown)
VH: QMQLVESGGGVVQPGRSLTLSCAASGFEFRTYGMHWVRQAPGKGLEWVAVIWDDGSNTVYADSVKGRFTITRDNSKNTLNLQMNSLRVEDTAVYYCVRAPQWYLTAEAFDLWGQGTMVTVSS
VL: SYILTQPPSVSVAPGQTATITCGGNLIGSRLVHWYQQKPGQAPVLVIYDDSDRPSRIPERFSGSNIGNTATLTIEDVEEGDEADYYCQVWDHYSDHMVFGGGTKLTVL
notes: IgG1
IC50 (hTSLP-His [3]): 10100 pM
Kd (recombinant human IL-13 [9]): 34.6 pM
koff (recombinant human IL-13 [9]): 0.000205 s⁻¹
kon (recombinant human IL-13 [9]): 5.93e+06 M⁻¹ s⁻¹
Kd (human TSLP [10]): 52.5 pM
koff (human TSLP [10]): 0.000257 s⁻¹
kon (human TSLP [10]): 4.9e+06 M⁻¹ s⁻¹
HEK-IL-13 [nM] (IC50, STAT6 reporter) (recombinant human IL-13 [7]): 0.0113 nM
IC50 CD23 (recombinant human IL-13 [8]): 162 pM

B6: BDG38.098 (antibody, V domains shown)
VH: B4 VH
VL: B4 VL with I3V, S29A, E75S, D76R, E79A, H92Y, Y93S, H96S
notes: IgG1
IC50 [pM], STAT5 phosphorylation inhibition in MUTZ5 cells (hTSLP-His [2]): 68.8 pM
Kd (recombinant human IL-13 [9]): 23.9 pM
koff (recombinant human IL-13 [9]): 0.000138 s⁻¹
kon (recombinant human IL-13 [9]): 5.8e+06 M⁻¹ s⁻¹
Kd (human TSLP [10]): 27.5 pM
koff (human TSLP [10]): 0.000237 s⁻¹
kon (human TSLP [10]): 8.6e+06 M⁻¹ s⁻¹
HEK-IL-13 [nM] (IC50, STAT6 reporter) (recombinant human IL-13 [7]): 0.0884 nM

B7: BDG38.107 (antibody, V domains shown)
VH: B4 VH with A49G, D53Y, V59H, V88A
VL: B4 VL with S29A, D76R, H92Y, Y93S, H96S, M97Y
notes: IgG1
IC50 [pM], STAT5 phosphorylation inhibition in MUTZ5 cells (hTSLP-His [2]): 0.508 pM
Kd (recombinant human IL-13 [9]): 2.74 pM
koff (recombinant human IL-13 [9]): 2.02e-05 s⁻¹
kon (recombinant human IL-13 [9]): 7.36e+06 M⁻¹ s⁻¹
Kd (human TSLP [10]): 151 pM
koff (human TSLP [10]): 8.16e-05 s⁻¹
kon (human TSLP [10]): 541000 M⁻¹ s⁻¹
HEK-IL-13 [nM] (IC50, STAT6 reporter) (recombinant human IL-13 [7]): 0.0943 nM

B9: BDG38.118 (antibody, V domains shown)
VH: B4 VH with T19R, A49G, D53Y, N57A, V59H
VL: B4 VL with Q16E, S29A, E75S, H92Y, Y93S, M97Y
notes: IgG1
IC50 [pM], STAT5 phosphorylation inhibition in MUTZ5 cells (hTSLP-His [2]): 0.688 pM
Kd (recombinant human IL-13 [4]): 15.7 pM
koff (recombinant human IL-13 [4]): 6.7e-05 s⁻¹
kon (recombinant human IL-13 [4]): 4.27e+06 M⁻¹ s⁻¹
Kd (human TSLP [5]): 964 pM
koff (human TSLP [5]): 0.00043 s⁻¹
kon (human TSLP [5]): 446000 M⁻¹ s⁻¹
HEK-IL-13 [nM] (IC50, STAT6 reporter) (recombinant human IL-13 [7]): 0.0804 nM

B10: BDG38.117 (antibody, V domains shown)
VH: B4 VH with A49G, V59H, V88A, V97A
VL: B4 VL with I3V, Q16E, S29A, R30K, E79A, H92Y, Y93S, H96T
notes: IgG1
Kd [1]: 36.7 pM
koff [1]: 0.00144 s⁻¹
kon [1]: 3.94e+07 M⁻¹ s⁻¹
IC50 [pM], STAT5 phosphorylation inhibition in MUTZ5 cells (hTSLP-His [2]): 0.363 pM
IC50 (hTSLP-His [3]): 6140 pM
Kd [6]: 8.9 pM
koff [6]: 0.000452 s⁻¹
kon [6]: 5.08e+07 M⁻¹ s⁻¹
Kd (recombinant human IL-13 [9]): 14.9 pM
koff (recombinant human IL-13 [9]): 0.000103 s⁻¹
kon (recombinant human IL-13 [9]): 6.94e+06 M⁻¹ s⁻¹
Kd (human TSLP [10]): 3.82 pM
koff (human TSLP [10]): 2.7e-05 s⁻¹
kon (human TSLP [10]): 7.07e+06 M⁻¹ s⁻¹
HEK-IL-13 [nM] (IC50, STAT6 reporter) (recombinant human IL-13 [7]): 0.0801 nM
IC50 CD23 (recombinant human IL-13 [8]): 121 pM

Other lines, results leading:

Kd [1]: 102 pM
koff [1]: 0.00309 s⁻¹
kon [1]: 3.02e+07 M⁻¹ s⁻¹
IC50 [pM], STAT5 phosphorylation inhibition in MUTZ5 cells (hTSLP-His [2]): 0.0048 pM
IC50 (hTSLP-His [3]): 5380 pM
Kd (recombinant human IL-13 [4]): 32.1 pM
koff (recombinant human IL-13 [4]): 0.000176 s⁻¹
kon (recombinant human IL-13 [4]): 5.49e+06 M⁻¹ s⁻¹
Kd (human TSLP [5]): 9.07 pM
koff (human TSLP [5]): 3.86e-05 s⁻¹
kon (human TSLP [5]): 4.25e+06 M⁻¹ s⁻¹
Kd [6]: 0.0492 pM
koff [6]: 7.62e-08 s⁻¹
kon [6]: 1.55e+06 M⁻¹ s⁻¹
HEK-IL-13 [nM] (IC50, STAT6 reporter) (recombinant human IL-13 [7]): 0.0523 nM
IC50 CD23 (recombinant human IL-13 [8]): 14.9 pM
B1: BDG38.128 (antibody, V domains shown)
VH: B4 VH with V59H
VL: B4 VL with Q16E, S29A, R30K, I66S, E75S, H92Y, S94A, H96T
notes: IgG1

Kd [1]: 23.1 pM
koff [1]: 0.0014 s⁻¹
kon [1]: 6.05e+07 M⁻¹ s⁻¹
IC50 [pM], STAT5 phosphorylation inhibition in MUTZ5 cells (hTSLP-His [2]): 0.676 pM
IC50 (hTSLP-His [3]): 5490 pM
Kd (recombinant human IL-13 [4]): 16.7 pM
koff (recombinant human IL-13 [4]): 0.000116 s⁻¹
kon (recombinant human IL-13 [4]): 6.96e+06 M⁻¹ s⁻¹
Kd (human TSLP [5]): 22.6 pM
koff (human TSLP [5]): 9.12e-05 s⁻¹
kon (human TSLP [5]): 4.03e+06 M⁻¹ s⁻¹
Kd [6]: 14.1 pM
koff [6]: 5.27e-05 s⁻¹
kon [6]: 3.75e+06 M⁻¹ s⁻¹
HEK-IL-13 [nM] (IC50, STAT6 reporter) (recombinant human IL-13 [7]): 0.0725 nM
IC50 CD23 (recombinant human IL-13 [8]): 29 pM
B2: BDG38.129 (antibody, V domains shown)
VH: B4 VH with A49G, V59H, V97A
VL: B4 VL with S29A, R30K, E75S, H92Y, Y93S
notes: IgG1

Kd [1]: 339 pM
koff [1]: 0.0077 s⁻¹
kon [1]: 2.27e+07 M⁻¹ s⁻¹
IC50 [pM], STAT5 phosphorylation inhibition in MUTZ5 cells (hTSLP-His [2]): 89 pM
IC50 (hTSLP-His [3]): 9570 pM
Kd (recombinant human IL-13 [4]): 27.5 pM
koff (recombinant human IL-13 [4]): 0.000212 s⁻¹
kon (recombinant human IL-13 [4]): 7.71e+06 M⁻¹ s⁻¹
Kd (human TSLP [5]): 3.27 pM
koff (human TSLP [5]): 2.54e-05 s⁻¹
kon (human TSLP [5]): 7.78e+06 M⁻¹ s⁻¹
Kd [6]: 2.39 pM
koff [6]: 1.55e-05 s⁻¹
kon [6]: 6.5e+06 M⁻¹ s⁻¹
HEK-IL-13 [nM] (IC50, STAT6 reporter) (recombinant human IL-13 [7]): 0.0464 nM
IC50 CD23 (recombinant human IL-13 [8]): 12 pM
B3: BDG38.139 (antibody, V domains shown)
VH: B4 VH with T19R, E28A, V59H, V88A, T105S
VL: SYVLTQPPSVSVAPGETATITCGGNMIGAYLVHWYQQKPGQAPLLVIYDDVDRPARIPERFSGSNSGNTATLTISRVEAGDEADYYCQVWDHNSDHMVFGGGTKLTVL
notes: IgG1

IC50 [pM], STAT5 phosphorylation inhibition in MUTZ5 cells (hTSLP-His [2]): 0.143 pM
Kd (recombinant human IL-13 [4]): 8.47 pM
koff (recombinant human IL-13 [4]): 5.01e-05 s⁻¹
kon (recombinant human IL-13 [4]): 5.91e+06 M⁻¹ s⁻¹
Kd (human TSLP [5]): 991 pM
koff (human TSLP [5]): 0.000427 s⁻¹
kon (human TSLP [5]): 431000 M⁻¹ s⁻¹
HEK-IL-13 [nM] (IC50, STAT6 reporter) (recombinant human IL-13 [7]): 0.044 nM
B5: BDG38.127 (antibody, V domains shown)
VH: B4 VH with A49G, D53Y, N57A, V59H, V88A, V97A
VL: B4 VL with Q16E, S29A, R30K, E75S, E79A, H92Y, H96T, M97Y
notes: IgG1

Kd [1]: 23.8 pM
koff [1]: 0.00131 s⁻¹
kon [1]: 5.54e+07 M⁻¹ s⁻¹
IC50 [pM], STAT5 phosphorylation inhibition in MUTZ5 cells (hTSLP-His [2]): 2.21 pM
IC50 (hTSLP-His [3]): 5630 pM
Kd (recombinant human IL-13 [4]): 34.4 pM
koff (recombinant human IL-13 [4]): 0.000168 s⁻¹
kon (recombinant human IL-13 [4]): 4.88e+06 M⁻¹ s⁻¹
Kd (human TSLP [5]): 8.27 pM
koff (human TSLP [5]): 2.79e-05 s⁻¹
kon (human TSLP [5]): 3.38e+06 M⁻¹ s⁻¹
Kd [6]: 0.614 pM
koff [6]: 2.78e-06 s⁻¹
kon [6]: 4.53e+06 M⁻¹ s⁻¹
HEK-IL-13 [nM] (IC50, STAT6 reporter) (recombinant human IL-13 [7]): 0.043 nM
IC50 CD23 (recombinant human IL-13 [8]): 146 pM
B8: BDG38.140 (antibody, V domains shown)
VH: B4 VH with A49G, V59H, V97A
VL: B4 VL with Q16E, S29A, R30K, E79A, H92Y, Y93S, S94A, D95N
notes: IgG1
